T1: FcγRIIb extracellular domain with C-terminal His tag (human, UniProt P31994 43-217)
T1 construct: extracellular domain; Soluble receptor expressed in FreeStyle293 cells; analyte in Biacore; also called FcgRIIb; 2b; not shown: His tag at the C terminus
T1 sequence (looked up): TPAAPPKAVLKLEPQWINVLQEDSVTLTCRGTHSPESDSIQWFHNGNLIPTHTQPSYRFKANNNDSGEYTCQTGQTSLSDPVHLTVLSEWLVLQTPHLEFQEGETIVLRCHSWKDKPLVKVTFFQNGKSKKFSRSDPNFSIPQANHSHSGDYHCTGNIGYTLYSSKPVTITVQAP

T2: FcγRIIa R (FcγRIIa, allotype R, Arg at position 131), extracellular domain with C-terminal His tag (human, UniProt P12318 34-217)
T2 construct: extracellular domain; soluble receptor used as Biacore analyte; also called 2aR; FcgRIIa R
T2 sequence (looked up): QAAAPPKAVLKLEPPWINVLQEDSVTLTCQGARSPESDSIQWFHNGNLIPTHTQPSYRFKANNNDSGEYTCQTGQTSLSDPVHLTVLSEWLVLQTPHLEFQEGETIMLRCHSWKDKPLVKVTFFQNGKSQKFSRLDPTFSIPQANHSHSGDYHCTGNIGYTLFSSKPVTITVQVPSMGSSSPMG

T3: FcγRIIb, extracellular domain with C-terminal His tag (human, UniProt P31994 43-217)
T3 construct: extracellular domain; soluble receptor used as Biacore analyte; also called 2b; FcgRIIb
T3 sequence (looked up): T1 sequence (looked up)

B1: GpH7-A5/GpH7-B3 variant A330_07I/GpL16-k0 (antibody, human IgG1, kappa)
heavy 1: not shown
heavy 2: not shown
light: DIVMTQSPLSLPVTPGEPASISCQASESLVHSNRNTYLHWYLQKPGQSPQLLIYKVSNRFSGVPDRFSGSGSGTDFTLKISRVEAEDVGVYYCSQNTHVPPTFGQGTKVEIERTVAAPSVFIFPPSDEQLKSGTASVVCLLNNFYPREAKVQWKVDNALQSGNSQESVTEQDSKDSTYSLSSTLTLSKADYEKHKVYACEVTHQGLSSPVTKSFNRGEC
notes: He Ab: heterodimerized anti-glypican-3 IgG1, substitution in one H chain only; also called He Ab A330I
B2: GpH7-A5/GpH7-B3 variant E333_12R/GpL16-k0 (antibody, human IgG1, kappa)
heavy 1: not shown
heavy 2: not shown
light: B1 light
notes: He Ab: heterodimerized anti-glypican-3 IgG1, substitution in one H chain only; also called He Ab E333R
B3: GpH7-A5/GpH7-B3 variant E333_16H/GpL16-k0 (antibody, human IgG1, kappa)
heavy 1: not shown
heavy 2: not shown
light: B1 light
notes: He Ab: heterodimerized anti-glypican-3 IgG1, substitution in one H chain only; also called He Ab E333H
B4: GpH7-A5/GpH7-B3 variant I332_12R/GpL16-k0 (antibody, human IgG1, kappa)
heavy 1: not shown
heavy 2: not shown
light: B1 light
notes: He Ab: heterodimerized anti-glypican-3 IgG1, substitution in one H chain only; also called He Ab I332R
B5: GpH7-A5/GpH7-B3 variant A330_14T/GpL16-k0 (antibody, human IgG1, kappa)
heavy 1: not shown
heavy 2: not shown
light: B1 light
notes: He Ab: heterodimerized anti-glypican-3 IgG1, substitution in one H chain only; also called He Ab A330T
B6: GpH7-A5/GpH7-B3 variant E333_11K/GpL16-k0 (antibody, human IgG1, kappa)
heavy 1: not shown
heavy 2: not shown
light: B1 light
notes: He Ab: heterodimerized anti-glypican-3 IgG1, substitution in one H chain only; also called He Ab E333K
B7: GpH7-A5/GpH7-B3 variant E333_02A/GpL16-k0 (antibody, human IgG1, kappa)
heavy 1: not shown
heavy 2: not shown
light: B1 light
notes: He Ab: heterodimerized anti-glypican-3 IgG1, substitution in one H chain only; also called He Ab E333A
B8: GpH7-A5/GpH7-B3 variant A330_16H/GpL16-k0 (antibody, human IgG1, kappa)
heavy 1: not shown
heavy 2: not shown
light: B1 light
notes: He Ab: heterodimerized anti-glypican-3 IgG1, substitution in one H chain only; also called He Ab A330H
B9: heterodimerized antibody GpH7-A5/GpH7-B3 variant V266_08L/GpL16-k0 (antibody, human IgG1, kappa)
heavy 1: not shown
heavy 2: not shown
light: B1 light
notes: He Ab: anti-glypican-3 IgG1, alteration in one H chain only; also called He Ab
B10: heterodimerized antibody GpH7-A5/GpH7-B3 variant V266_06M/GpL16-k0 (antibody, human IgG1, kappa)
heavy 1: not shown
heavy 2: not shown
light: B1 light
notes: as for B9
B11: heterodimerized antibody GpH7-A5/GpH7-B3 variant V266_04F/GpL16-k0 (antibody, human IgG1, kappa)
heavy 1: not shown
heavy 2: not shown
light: B1 light
notes: as for B9
B12: heterodimerized antibody GpH7-A5/GpH7-B3 variant S267_14T/GpL16-k0 (antibody, human IgG1, kappa)
heavy 1: not shown
heavy 2: not shown
light: B1 light
notes: as for B9
B13: heterodimerized antibody GpH7-A5/GpH7-B3 variant Y300_10E/GpL16-k0 (antibody, human IgG1, kappa)
heavy 1: not shown
heavy 2: not shown
light: B1 light
notes: as for B9
B14: heterodimerized antibody GpH7-A5/GpH7-B3 variant S267_16H/GpL16-k0 (antibody, human IgG1, kappa)
heavy 1: not shown
heavy 2: not shown
light: B1 light
notes: as for B9
B15: heterodimerized antibody GpH7-A5/GpH7-B3 variant S267_19Q/GpL16-k0 (antibody, human IgG1, kappa)
heavy 1: not shown
heavy 2: not shown
light: B1 light
notes: as for B9
B16: heterodimerized antibody GpH7-A5/GpH7-B3 variant V266_07I/GpL16-k0 (antibody, human IgG1, kappa)
heavy 1: not shown
heavy 2: not shown
light: B1 light
notes: as for B9

Each binder was assayed against T4, FcγRIa extracellular domain with C-terminal His tag (human, UniProt P12314 16-292) (assay: SPR (Biacore), antibody captured on antigen peptide chip, FcγR as analyte; binding relative to GpH7-A5/GpH7-B3/GpL16-k0 = 100).
T4 construct: extracellular domain; Soluble receptor expressed in FreeStyle293 cells; analyte in Biacore; also called FcgRI; FcgRIa; not shown: His tag at the C terminus
Experimental: (§1) The heterodimerized antibodies He Abs in which one of the H chains was introduced with an alteration were assayed for their binding activities to each activating FcγR and inhibitory FcγR according to the method described in Example 4. […] The activating FcγRs in FIGS. 26, 27, 28, and 29 are FcγRIa, FcγRIIa (R), FcγRIIa (H), and FcγRIIIa, respectively.
(§2) Analysis of interaction between objective antibody and the FcγR was carried out using Biacore T100 (GE Healthcare). HBS-EP+ (GE Healthcare) was used as the running buffer, and the measurement temperature was set to 25° C. Chips produced by immobilizing the antigen peptide by the amine coupling method to a Series S Sencor Chip CM5 (GE Healthcare), or alternatively, chips produced by allowing preliminarily biotinylated antigen peptides to interact with and immobilize onto a Series S Sensor Chip SA (certified) (GE Healthcare) were used. Antibodies of interest were captured onto an antigen peptide-immobilized chip, and allowed to interact to each FcγR diluted with running buffer. To regenerate and repeatedly use the chip, the antibodies captured on the chip were washed off by reacting 10 mM glycine-HCl, pH 1.5.

T4 sequence (P12314 16-292): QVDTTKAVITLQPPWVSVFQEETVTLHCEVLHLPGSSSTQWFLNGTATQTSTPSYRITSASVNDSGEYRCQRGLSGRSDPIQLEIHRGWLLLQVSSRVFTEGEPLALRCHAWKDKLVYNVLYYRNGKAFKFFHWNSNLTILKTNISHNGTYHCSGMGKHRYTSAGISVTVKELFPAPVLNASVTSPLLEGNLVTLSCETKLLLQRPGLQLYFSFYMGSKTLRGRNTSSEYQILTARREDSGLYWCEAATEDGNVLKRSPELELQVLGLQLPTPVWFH

| He/Con_1a (Ia binding) | Binder |
| --- | --- |
| 105 % of control (control = 100) | B1 |
| 102 % of control (control = 100) | B2 |
| 101 % of control (control = 100) | B3 |
| 100 % of control (control = 100) | B4 |
| 105 % of control (control = 100) | B5 |
| 102 % of control (control = 100) | B6 |
| 103 % of control (control = 100) | B7 |
| 106 % of control (control = 100) | B8 |

The binders below were run against T1, FcγRIIb extracellular domain with … in the same assay as above.
Experimental: as §1, §2

| He/Con_2b (IIb binding) | Binder |
| --- | --- |
| 67.1 % of control (control = 100) | B1 |
| 80.4 % of control (control = 100) | B2 |
| 83.3 % of control (control = 100) | B3 |
| 48.9 % of control (control = 100) | B4 |
| 77.9 % of control (control = 100) | B5 |
| 80.6 % of control (control = 100) | B6 |
| 83.8 % of control (control = 100) | B7 |
| 87.6 % of control (control = 100) | B8 |

What follows are binders tested against T2, FcγRIIa R (FcγRIIa, allotype R, Arg at …) (assay: Biacore SPR; binding relative to GpH7-A5/GpH7-B3/GpL16-k0 (=100)).

| He/Con_2aR (IIaR binding) | Binder |
| --- | --- |
| 142 % of control | B9 |
| 150 % of control | B10 |
| 44.4 % of control | B11 |
| 81.9 % of control | B12 |
| 107 % of control | B13 |
| 50.6 % of control | B14 |
| 135 % of control | B15 |
| 120 % of control | B16 |

The binders below were run against T3, FcγRIIb, extracellular domain with … in the same assay as above.

| He/Con_2b (IIb binding) | Binder |
| --- | --- |
| 236 % of control | B9 |
| 251 % of control | B10 |
| 57.6 % of control | B11 |
| 104 % of control | B12 |
| 134 % of control | B13 |
| 65.9 % of control | B14 |
| 218 % of control | B15 |
| 152 % of control | B16 |

Each binder was assayed against T4, FcγRIa extracellular domain with … (assay: SPR (Biacore); He/Con_1a divided by He/Con_2b (FcγRIIb)).
Experimental: as §1, §2

| He_1a/2b (Ia/IIb) | Binder |
| --- | --- |
| 1.57 | B1 |
| 1.27 | B2 |
| 1.21 | B3 |
| 2.05 | B4 |
| 1.35 | B5 |
| 1.27 | B6 |
| 1.23 | B7 |
| 1.21 | B8 |

The binders below were run against T2, FcγRIIa R (FcγRIIa, allotype R, Arg at …) (assay: Biacore SPR; He/Con_2aR divided by He/Con_2b (FcγRIIb)).

| IIaR/IIb (He_2aR/2b) | Binder |
| --- | --- |
| 0.6 | B9 |
| 0.6 | B10 |
| 0.77 | B11 |
| 0.78 | B12 |
| 0.8 | B13 |
| 0.77 | B14 |
| 0.62 | B15 |
| 0.79 | B16 |
